Six molecules from patent US20190092856A1 (published 2019) can be followed below.

Numbering of substitutions follows the chain as printed.

In experiment [1] the target is T1, human OSM (recombinant, mammalian-cell derived, OSMN1-1) (human, UniProt P13725 26-221, limits assumed).
T1 sequence: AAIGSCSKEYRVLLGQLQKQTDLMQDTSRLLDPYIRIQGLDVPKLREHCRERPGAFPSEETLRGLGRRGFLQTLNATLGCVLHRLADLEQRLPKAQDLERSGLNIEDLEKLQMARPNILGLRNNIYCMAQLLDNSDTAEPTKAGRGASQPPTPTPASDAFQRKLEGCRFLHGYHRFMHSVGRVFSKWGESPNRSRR
Description: cell-based or functional assay.

For experiment [2], the target named is T2, Cynomolgus monkey (Macaca fascicularis) OSM, recombinant, in-house (cynomolgus monkey, UniProt P13725 26-221 (human entry), limits assumed).
T2 construct: His/AviTag construct expressed in HEK 293; also called Cyno OSM; cyno OSM
T2 chain: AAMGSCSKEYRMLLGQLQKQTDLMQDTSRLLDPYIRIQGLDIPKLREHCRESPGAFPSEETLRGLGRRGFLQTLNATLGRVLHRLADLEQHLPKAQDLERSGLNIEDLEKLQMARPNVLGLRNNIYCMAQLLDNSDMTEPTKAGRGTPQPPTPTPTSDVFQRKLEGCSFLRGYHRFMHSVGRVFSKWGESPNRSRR
Description: SPR (Biacore), KD for cyno OSM over KD for human OSM. Here is the method:
(§1) The binding affinities were measured using Surface Plasmon Resonance (SPR) with a Biacore 3000 optical biosensor (Biacore) using human or Cyno OSM constructs as described. […] Approximately 19,000 RU (response units) of anti-OSM antibody were immobilized in each of four flow cells. The kinetic experiments were performed at 25° C. in running buffer (DPBS+0.005% P20+3 mM EDTA). Serial dilutions Human and Cyno OSM ECD from 100 nM to 0.412 nM were prepared in running buffer. About 200 RU of mAb were captured on flow cells 2 to 4 of the sensor chip. Flow cell 1 was used as reference surface. Capture of mAb was followed by a three-minute injection (association phase) of antigen at 50 μl/min, followed by 10 minutes of buffer flow (dissociation phase). The chip surface was regenerated by two pulses of 18-second injections of 100 mM H3PO4 (Sigma, Cat. No. 7961) at 50 μl/min.
(§2) The collected data was processed using the BIAevaluation software (Biacore, version 3.2). First, double reference subtraction of the data was performed by subtracting the curves generated by buffer injection from the reference-subtracted curves for analyte injections. Kinetic analysis of the data was performed using 1:1 binding model with global fit. The result for each mAb was reported in the format of Ka (On-rate), Kd (Off-rate) and KD (affinity constant).

Experiment [3] has as its target T1, human OSM (recombinant, mammalian-cell …). Description: SPR (Biacore), mAb captured by anti-Fc, OSM as analyte. The method, then:
as §1, §2
For orientation: SPR reads the build-up and loss of mass on a sensor chip optically.

Experiment [4] deals with T2, Cynomolgus monkey (Macaca fascicularis) …. The experiment is described as above. Here is the method:
as §1, §2

Experiment [5] has as its target T1, human OSM (recombinant, mammalian-cell …). Nature of the experiment: SPR competition, hOSM captured on immobilized M71 (competitor), sample at 300 nM. Here is the method:
(§3) The biosensor surface was prepared by coupling each test mAb to the carboxymethylated dextran surface of a CM-5 chip (Biacore, Cat# BR-1000-14) following the manufacturer's instructions. Approximately 4,000-15,000 RU (response units) of each test mAb were immobilized in one the instrument's four flow cells. Competition experiments were performed at 25 ° C. in running buffer (DPBS+0.005% P20+3 mM EDTA). Human OSM (in-house, OSMN1-1) was diluted to 30 nM in running buffer and injected at 3 μl/min for 3 minutes over each of the flow cells with immobilized mAb. […] The chip surface was regenerated by two 12-second pulses of 100 mM H3PO4 (Sigma, Cat# 7961) at 50 μl/min. The collected data were processed using BIAevaluation software version 3.2 (Biacore). First, the sensorgrams were aligned upon injection of human OSM. […] Flow-cell (Fc1, etc.) immobilized mAbs appear along the horizontal sample rows of Table 10.

The target is the same in experiment [6]. Nature of the experiment: SPR competition, hOSM captured on immobilized M2 (competitor), sample at 300 nM. The method, then:
as §3

For experiment [7] the target is unchanged. Description: SPR competition, second chip, hOSM captured on immobilized M64 (competitor), sample at 300 nM. The method, then: as §3
The target is the same in experiment [8]. Description: SPR competition, hOSM captured on immobilized M69 (competitor), sample at 300 nM. The method, then: as §3
For experiment [9] the target is unchanged. Nature of the experiment: SPR competition, second chip, hOSM captured on immobilized M2 (competitor), sample at 300 nM. Here is the method: as §3
Experiment [10] has the same target. Description: SPR competition, second chip, hOSM captured on immobilized M55 (competitor), sample at 300 nM. Here is the method: as §3
Experiment [11] shares this target. Nature of the experiment: SPR competition, hOSM captured on immobilized M54 (competitor), sample at 300 nM. The method, then: as §3
Experiment [12] addresses T3, CHO cell-derived recombinant cynomolgous monkey oncostatin M (in-house) (cynomolgus monkey, UniProt P13725 26-221 (human entry), limits assumed).
T3 chain: T2 chain
Nature of the experiment: cell-based or functional assay.

For experiment [13], the target named is T4, CHO cell-derived recombinant human oncostatin M (in-house) (human, UniProt P13725 26-221, limits assumed).
T4 sequence: T1 sequence
Nature of the experiment: cell-based or functional assay.

Experiment [14] concerns the target T1, human OSM (recombinant, mammalian-cell …). Description: cell-based or functional assay. The source holds these as a separate data set.
Experiment [15] addresses T5, native human Oncostatin M (macrophage-derived) (human, UniProt P13725 26-221, limits assumed).
T5 sequence: T1 sequence
Nature of the experiment: cell-based or functional assay.

B1: M9 (antibody, V domains shown)
VH: EVQLVQSGAEVKKPGESLKISCKGSGYSFTSYWISWVRQMPGKGLEWMGIIYPGDSYTRYSPSFQGQVTISADKSISTAYLQWSSLKASDTAMYYCARVPVSPAYLDYWGQGTLVTVSS
VL: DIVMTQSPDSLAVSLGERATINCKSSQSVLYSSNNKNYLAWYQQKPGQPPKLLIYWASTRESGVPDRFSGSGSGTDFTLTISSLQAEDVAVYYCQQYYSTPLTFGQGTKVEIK
notes: Tested as full-length human IgG1; also called OSMM9
On to B1, for which, in [1], the “pSTAT3 inhibition EC50 (A375 cells, 5 ng/ml hOSM)” value (“pSTAT3 inhibition EC50” for short) is 1220 ng/ml. In experiment [2], the “KD ratio Cyno/Human” value worked out at 0.6. Besides, in experiment [3], the Kd turned out to be 1.22 nM, the koff was 8.1e-05 s⁻¹ and the on-rate (kon) amounted to 66300 M⁻¹ s⁻¹. For the same molecule, in experiment [4], the Kd came to 0.73 nM, the dissociation rate constant (koff) is 5.4e-05 s⁻¹ and the association rate constant (kon) was 73100 M⁻¹ s⁻¹.

B2: M6 (antibody, V domains shown)
VH: B1 VH with V99G, P100S, S102F, P103E, L106F
VL: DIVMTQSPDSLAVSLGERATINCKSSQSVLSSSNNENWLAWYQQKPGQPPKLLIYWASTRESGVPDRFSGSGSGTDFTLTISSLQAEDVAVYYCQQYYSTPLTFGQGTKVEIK
notes: Tested as full-length human IgG1; also called OSMM6; H14/L12
With B2, the “Binding Level (RU)” value in [5] was found to be 19 RU; in [6], 985 RU; in [7], 33 RU; in experiment [8] it was 16 RU; in experiment [9] it was 926 RU; in [10] it was 36 RU. Also, in experiment [11], the “Binding Level (RU)” value came to 11 RU. Besides, the “pSTAT3 inhibition EC50” value in experiment [1] is 650 ng/ml. Further, the “KD ratio Cyno/Human” value in experiment [2] was 1.4. The equilibrium dissociation constant (Kd) in [3] turned out to be 1.03 nM; in experiment [4] it was 1.48 nM. Also, the koff was found to be 0.000197 s⁻¹ in [3] and 0.000299 s⁻¹ in [4]. Besides, the results for the on-rate constant (kon) in [3] and in experiment [4] were 192000 M⁻¹ s⁻¹ and 203000 M⁻¹ s⁻¹, respectively.

B3: M71 (antibody, V domains shown)
VH: B1 VH
VL: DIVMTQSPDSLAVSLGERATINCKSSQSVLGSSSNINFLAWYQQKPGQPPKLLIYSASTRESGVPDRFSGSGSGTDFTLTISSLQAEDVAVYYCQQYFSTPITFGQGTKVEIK
notes: Human IgG1; also called H17/L180
On to B3, for which the “Binding Level (RU)” value stood at 32 RU in experiment [5]; 1190 RU in [6]; 17 RU in experiment [7]; 23 RU in experiment [8]; 1130 RU in experiment [9]; 22 RU in [10]. In [11], the “Binding Level (RU)” value is -1 RU. Besides, the “IC50, neutralization of OSM suppression of A375-S2 proliferation (BrdU)” value in experiment [12] was found to be 0.0397 µg/mL; in experiment [13], 0.0219 µg/mL. Besides, the “pSTAT3 inhibition EC50” value in experiment [1] was found to be 160 ng/ml. Further, in experiment [14], the “IC50, neutralization of OSM-induced STAT3 phosphorylation in NHLF cells (2 ng/ml OSM)” value was 0.0089 µg/mL. In experiment [15], the “EC50, increase of proteoglycan synthesis in macrophage-chondrocyte co-culture” value worked out at 0.03 µg/mL.

B4: M10 (antibody, V domains shown)
VH: QVQLVQSGAEVKKPGSSVKVSCKASGGTFSSYAISWVRQAPGQGLEWMGGIIPIFGNANYAQKFQGRVTITADESTSTAYMELSSLRSEDTAVYYCARYGAKGLLDYWGQGTLVTVSS
VL: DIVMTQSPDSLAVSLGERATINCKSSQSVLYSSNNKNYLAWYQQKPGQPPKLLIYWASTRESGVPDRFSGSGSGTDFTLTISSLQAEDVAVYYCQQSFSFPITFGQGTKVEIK
notes: Tested as full-length human IgG1; also called OSMM10; H2/L2
Take B4: the “KD ratio Cyno/Human” value in [2] was found to be 18.1. For the same molecule, in experiment [3], the Kd amounted to 1.05 nM, the off-rate (koff) came to 6.3e-05 s⁻¹ and the kon is 60200 M⁻¹ s⁻¹. In [4], the dissociation constant (Kd) came out at 18.9 nM, the koff was 0.00101 s⁻¹ and the kon came out at 53300 M⁻¹ s⁻¹.

B5: M5 (antibody, V domains shown)
VH: EVQLVQSGAEVKKPGESLKISCKGSGYSFTSYWIGWVRQMPGKGLEWMGIIYPGDSDTRYSPSFQGQVTISADKSISTAYLQWSSLKASDTAMYYCARGFGASYLDYWGQGTLVTVSS
VL: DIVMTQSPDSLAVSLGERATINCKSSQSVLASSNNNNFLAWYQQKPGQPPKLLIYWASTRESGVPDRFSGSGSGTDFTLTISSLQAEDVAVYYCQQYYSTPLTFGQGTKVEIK
notes: Tested as full-length human IgG1; also called OSMM5; H135/L111
With B5, the “KD ratio Cyno/Human” value in experiment [2] worked out at 1. For the same molecule, in [3], the dissociation constant (Kd) came out at 11.8 nM, the koff was determined as 0.000779 s⁻¹ and the kon is 65900 M⁻¹ s⁻¹. Further, in experiment [4], the dissociation constant (Kd) was determined as 12.1 nM, the off-rate (koff) was determined as 0.00111 s⁻¹ and the kon was determined as 92200 M⁻¹ s⁻¹.

B6: Human gp130-Fc (R&D Systems, Cat. No. 671-GP) (Fc fusion, UniProt P40189 23-619, looked up)
chain: ELLDPCGYISPESPVVQLHSNFTAVCVLKEKCMDYFHVNANYIVWKTNHFTIPKEQYTIINRTASSVTFTDIASLNIQLTCNILTFGQLEQNVYGITIISGLPPEKPKNLSCIVNEGKKMRCEWDGGRETHLETNFTLKSEWATHKFADCKAKRDTPTSCTVDYSTVYFVNIEVWVEAENALGKVTSDHINFDPVYKVKPNPPHNLSVINSEELSSILKLTWTNPSIKSVIILKYNIQYRTKDASTWSQIPPEDTASTRSSFTVQDLKPFTEYVFRIRCMKEDGKGYWSDWSEEASGITYEDRPSKAPSFWYKIDPSHTQGYRTVQLVWKTLPPFEANGKILDYEVTLTRWKSHLQNYTVNATKLTVNLTNDRYLATLTVRNLVGKSDAAVLTIPACDFQATHPVMDLKAFPKDNMLWVEWTTPRESVKKYILEWCVLSDKAPCITDWQQEDGTVHRTYLRGNLAESKCYLITVTPVYADGPGSPESIKAYLKQAPPSKGPTVRTKKVGKNEAVLEWDQLPVDVQNGFIRNYTIFYRTIIGNETAVNVDSSHTEYTLSSLTSDTLYMVRMAAYTDEGGKDGPEFTFTTPKFAQGEIE
notes: Bought fusion protein; also called gp130-Fc chimera; Fc part of the bought chimera not given, not described
Consider B6, for which the “Binding Level (RU)” value in experiment [5] was determined as 29 RU; in [6], 319 RU; in experiment [7] it was 18 RU; in experiment [8], 20 RU; in [9], 251 RU; in [10], 25 RU. Moreover, the “Binding Level (RU)” value in [11] is 17 RU.

What is called Kd is the constant that tells how readily two partners part at equilibrium. In general, koff refers to a measure of how fast the partners let go of each other. Broadly, the kon is a measure of how fast the partners come together.
